Measurements: article PMC8419096

B1: VHH52-GFP (control nanobody elicited against the influenza nucleoprotein, fused to GFP) (VHH)
VHH: QVQLQESGGGLVQAGGSLRLTCALSERTSTSYAQGWFRQPPGKEREFVASLRTHDGNTHYTDSVKGRFTISRDNAENTLYLQMNSLKTEDTAVYYCAASLGYSGAYASGYDYWGQGTQVTVSS

Biological target: HIV-1 precursor Gag (PrGag) protein (HIV-1) (UniProt P04591)
Assay: dual fluorescence microscopy of virus-like particles

| Molecule | percent of CA positive particles that were also GFP positive [%] |
| --- | --- |
| EGFP-Vpr (from UniProt P12520 1-96) (natural protein) | 39.1 |
| B1 | 0.1 |
